No end group written: not given here.
T1: HMGB1 B-box peptide 91-108 (human, also: biotinylated, site not given here)
T1 peptide: DPNAPKRPPSAFFLFCSE

T2: recombinant HMG1 produced in E. coli as calmodulin binding protein (CBP) fusion (human)
T2 chain: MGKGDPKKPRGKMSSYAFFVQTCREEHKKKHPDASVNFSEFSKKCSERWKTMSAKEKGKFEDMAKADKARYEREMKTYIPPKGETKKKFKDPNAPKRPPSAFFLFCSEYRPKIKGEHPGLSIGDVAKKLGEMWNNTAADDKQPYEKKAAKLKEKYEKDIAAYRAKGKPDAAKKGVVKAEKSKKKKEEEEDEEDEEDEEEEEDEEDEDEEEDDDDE

T3: native nuclear HMG1 prepared from 293H cells by freeze thaw (human, UniProt P09429 1-215)
T3 sequence (looked up): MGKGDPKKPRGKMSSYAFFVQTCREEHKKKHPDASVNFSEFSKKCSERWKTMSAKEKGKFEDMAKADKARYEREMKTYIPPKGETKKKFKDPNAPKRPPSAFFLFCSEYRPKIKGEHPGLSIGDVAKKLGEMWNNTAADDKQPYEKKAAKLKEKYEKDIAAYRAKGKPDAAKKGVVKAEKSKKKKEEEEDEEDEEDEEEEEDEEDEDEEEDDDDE

T4: activated HMG1 prepared from LPS stimulated THP-1 cells (human, UniProt P09429 1-215)
T4 construct: also called Native HMGB
T4 sequence (looked up): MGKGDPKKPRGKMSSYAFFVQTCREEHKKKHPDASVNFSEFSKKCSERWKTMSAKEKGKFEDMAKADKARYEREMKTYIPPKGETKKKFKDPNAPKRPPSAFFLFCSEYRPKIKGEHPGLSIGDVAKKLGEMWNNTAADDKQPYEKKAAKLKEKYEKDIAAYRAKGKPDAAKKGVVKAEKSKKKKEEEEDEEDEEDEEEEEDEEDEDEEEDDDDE

T5: released HMG1 from the conditioned media of necrotic 293H cells (human, UniProt P09429 1-215)
T5 construct: also called necrotic HMG1
T5 sequence (looked up): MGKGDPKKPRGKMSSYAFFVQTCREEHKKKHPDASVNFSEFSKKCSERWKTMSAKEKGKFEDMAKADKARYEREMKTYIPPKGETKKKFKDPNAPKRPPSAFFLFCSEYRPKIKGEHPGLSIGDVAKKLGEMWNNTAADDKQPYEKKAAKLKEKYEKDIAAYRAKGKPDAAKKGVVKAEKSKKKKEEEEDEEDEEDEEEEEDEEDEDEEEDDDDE

T6: actively secreted HMGB1 of LPS activated HUVEC cells (UniProt P09429 1-215)
T6 sequence (looked up): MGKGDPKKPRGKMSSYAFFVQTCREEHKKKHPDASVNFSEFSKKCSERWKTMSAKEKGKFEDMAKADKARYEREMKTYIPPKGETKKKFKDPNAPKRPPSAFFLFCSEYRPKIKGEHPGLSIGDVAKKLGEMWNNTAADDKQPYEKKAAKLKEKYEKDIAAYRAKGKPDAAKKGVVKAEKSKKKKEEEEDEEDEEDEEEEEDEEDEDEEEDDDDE

T7: nuclear HMGB1 in HUVEC cells (UniProt P09429 1-215)
T7 construct: HUVEC are human cells; also called nuclear HMGB1 (immunostaining)
T7 sequence (looked up): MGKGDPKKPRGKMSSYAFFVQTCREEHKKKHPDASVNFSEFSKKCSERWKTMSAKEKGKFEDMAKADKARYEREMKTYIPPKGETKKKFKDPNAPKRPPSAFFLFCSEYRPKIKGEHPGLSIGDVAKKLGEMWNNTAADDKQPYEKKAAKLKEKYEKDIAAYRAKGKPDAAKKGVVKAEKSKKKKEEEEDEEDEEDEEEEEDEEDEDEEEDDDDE


How the values were obtained:
[1] = target: T1, HMGB1 B-box peptide 91-108; test: ELISA on biotinylated peptides captured on avidin
Procedure: The plate was then blocked with 4% milk powder dissolved in PBS at 37° C. for 1 hour. The blocking solution was removed and replaced with human anti-HMG1 antibodies at various concentrations (see FIGS. 5A-B). […] HRP activity was detected with Sureblue HRP substrate (KPL). Plates were read at 450 nm using a Kinetic Microplate Reader (Molecular Devices). […] After washing and blocking with 1% BSA in PBS, the biotinylated peptides were individually added into the avidin coated wells and incubated for 30 min at room temperature. The serial diluted antibody G4, S16 and S6 at the initial concentration at 10 μg/ml were then transferred into the wells followed by adding mouse anti human IgG-HRP conjugate (Pierce). Detection was accomplished by adding 50 μl of tetramethylbenzidine (TMB) substrate (KPL) and the absorbance was read at 450 nm.

[2] = target: T2, recombinant HMG1 produced in E. coli as …; test: BIAcore 3000; mAb amine-coupled to CM5, HMG1 injected in two-fold dilutions; steady-state model
Procedure: HMG1 Binding Affinity via BIAcore Analysis: All experiments were performed on a BIAcore 3000 instrument (BIAcore, Inc., Piscataway, N.J.). Briefly, each mAb was immobilized to a CM5 sensor chip using a standard amine coupling chemistry. Separately a reference (control) flow cell was also prepared. Two-fold, serial dilutions of HMG1 in instrument buffer were sequentially injected at a slow flow rate over the individual mAb and reference flow-cell surfaces. Following the binding and dissociation of HMG1, the mAbs surfaces were regenerated with a brief pulse of 1M NaCl-50 mM NaOH. At the end of each experiment, the binding curves were evaluated using a steady-state model available through the BIAevaluation software supplied by BIAcore, Inc. (Piscataway, N.J.).

[3] = target: T2, recombinant HMG1 produced in E. coli as …; test: cell-based or functional assay
[4] = target: T2, recombinant HMG1 produced in E. coli as …; test: ELISA; HMGB1 preincubated with antibody, then added to immobilised RAGE-Fc
Procedure: HMG1 binding to RAGE-Ig by ELISA: 50 μl/well of RAGE-Fc fusion protein at 5 μg/ml in PBS was added to each well of an ELISA plate and incubated overnight at 4° C. The plate was then blocked with 200 μl of 5% milk at 37° C. for 1 hr and washed 3× with PBS/Tween. 50 μl/well of diluted HMGB1 solution. For dose curves, HMGB1 concentrations started at 4 ug/ml in PBS. For antibody blocking the HMGB1 was preincubated in another plate with human anti-HMG1 antibodies or buffer, then transferred to the RAGE-coated plate. The plates were then incubated at room temperature for 2 hours and washed 3×. To detect any HMG1 bound to the immobilized RAGE-Fc a mixture of biotinylated mouse anti-HMG1 mAbs (10D4, 4H11, 3E10 and 5C12) each at 1 ug/ml, total Ab: 4 ug/ml, were added to each well and the plate was incubated for 1 hour at room temperature. The plate was then washed and Strepavidin-HPR was added to each well and incubated 15 min. The plate was then washed 3× and blotted dry. 100 μl of TMB developing agent was added and the plate read at 650 nm. Values were calculated as percent of inhibition with HMG1 alone equal to 0% inhibition. The data in FIG. 9 and summarized in Table 1 represent the average of two separate experiments.

[5] = target: T3, native nuclear HMG1 prepared from 293H …; test: HMG1 capture (sandwich) ELISA, FIG. 4B
Procedure: (§1) Sandwich ELISA (soluble HMG1): Immunoplates (EIA/RIA plate, High binding, Costar) were coated with anti human IgG Fc at 10 μg/ml in PBS (pH 7.2) and incubated at 4° C. overnight. The coating reagent was removed and the plates were rinsed briefly with PBS. The plates were then blocked with 4% milk for 1 hour at 37° C. and rinsed with PBS. The anti-HMG1 antibodies were diluted in 4% milk. For serial dilutions, the antibodies were used at a starting concentration of 20 μg/ml. The diluted anti-HMG1 antibodies were then added into plate and incubated for 1 hr at 37° C. The plate was then washed 10 times with PBST (PBS/0.1% tween 20) and incubate with antigen (HMGB1, 2 μg/ml; or 0.7 μg/ml for native HMGB1) in 4% milk and incubated at 37° C. for 1 h. The plate was then wash 10 times and incubated with mouse anti-HMGB1, 1 μg/ml in 4% milk at 37° C. for 1 h. The plate was washed 10 times and incubated with anti-mouse IgG-HRP at 1:1000 at 37° C. for 1 h. The plate was then washed and developed. HRP activity was detected with Sureblue HRP substrate (KPL). Plates were read at 450 nm using a Kinetic Microplate Reader (Molecular Devices).

[6] = target: T3, native nuclear HMG1 prepared from 293H …; test: sandwich ELISA, relative binding
Procedure: as §1

[7] = target: T4, activated HMG1 prepared from LPS …; test: sandwich ELISA, relative binding
Procedure: as §1

[8] = target: T5, released HMG1 from the conditioned …; test: sandwich ELISA, relative binding
Procedure: as §1

[9] = target: T6, actively secreted HMGB1 of LPS …; test: immunofluorescence on LPS treated HUVEC, antibody 1 ug/ml
Procedure: (§2) Immunofluorescence: Intracytoplasmic (ic) HMGB1 was quantitated by direct immunofluorescence. HUVEC were harvested by trypsin-EDTA treatment and seeded on a glass coverslip. Once the cells are settled, they were stimulated with 0.2 μg/ml of LPS (Sigma) for 4 hours. The cells were fixed in 2% paraformaldehyde for 15 min and then permeabilized in 0.2% Triton X-100 for 2 min. Fixed and permeabilized cells were incubated with anti-HMGB1 antibodies at 1 μg/ml for 1 hour at room temperature. Cells were then washed to remove excess or nonspecifically bound primary antibody followed by incubation with anti human IgG conjugated with fluorescence (Pierce). The sections were mounted with fluoromount (Southern Associates, Birmingham, Ala.), and the images were processed with a Nikon microscope (Japan) and a SPOT imaging system (Diagnostic Instrument).
(§3) As noted above, the different antibodies bind differently to HMGB1 isolated or prepared from different sources. To expand this observation the anti-HMBG1 antibodies G4 and S6 were used for immunostaining of untreated or LPS activated THp-1 (not shown) and HUVEC cells (FIG. 4F). […] As nuclear HMHB1 binds to DNA and histones, which might be disrupted after cell freeze and thaw we immunoprecipitate freeze thaw preparation and probed for histones by Western Blot. No DNA or histones could be detected from this preparation (data not shown). […]

[10] = target: T7, nuclear HMGB1 in HUVEC cells; test: immunofluorescence on HUVEC, antibody 1 ug/ml
Procedure: as §2, §3

| Binder | binding result [1] | Kd [2] [nM] | IC50, inhibition of rHMG1 stimulated IL-1β release from human PBMCs [3] [µg/mL] | IC50, inhibition of rHMG1 stimulated IL-6 release from human PBMCs [3] [nM] | IC50, inhibition of rHMG1 stimulated IL-12 release from human PBMCs [3] [µg/mL] | IC50, inhibition of rHMG1 stimulated TNF-α release from human PBMCs [3] [µg/mL] | percent inhibition of HMG1 binding to RAGE [4] [%] | binding result [5] | IC50, inhibition of HMG1 stimulated NO release from macrophages [3] [µg/mL] | binding result [6] | binding result [7] | binding result [9] | binding result [10] | binding result [8] |
| --- | --- | --- | --- | --- | --- | --- | --- | --- | --- | --- | --- | --- | --- | --- |
| anti-HMG1 antibody S2 (antibody, V domains shown, also called ATCC PTA-6142) VH: EVQLLESGGGLVQPGGSLRLSCAASGFTFSGYMMVWVRQAPGKGLEWVSRISPSGGQTGYADSVKGRFTISRDNSKNTLYLQMNSLRAEDTAVYYCAREEGGSYGAFDIWGQGTMVTVSS VL: not shown | – | 36 | 0.22 | 0.163 | – | 0.0642 | ≥ 35 | binds | – | – | – | – | – | – |
| anti-HMG1 antibody S10 (antibody, V domains shown) VH: EVQLLESGGGLVQPGGSLRLSCAASGFTFSWYDMWWVRQAPGKGLEWVSWIVPSGGITAYADSVKGRFTISRDNSKNTLYLQMNSLRAEDTATYYCARGNYGPSPFDYWGQGTLVTVSS VL: DIQMTQSPGTLSLSPGERATLSCRATQSVRKNFLAWYQQKPGQAPRLLIYDASSRATGIPDRFSGSGSGTDFTLTISRLEPEDFAVYYCQQYGNSPIIFGQGTRLEIK | – | 54 | 2.59 | 0.324 | 1.13 | 0.875 | ≥ 35 | binds | – | – | – | – | – | – |
| anti-HMG1 antibody S6 (antibody, V domains shown, also called ATCC PTA-6143) VH: EVQLLESGGGLVQPGGSLRLSCAASGFTFSWYDMSWVRQAPGKGLEWVSRISPSGGYTMYADSVKGRFTISRDNSKNTLYLQMNSLRAEDTAVYYCARLEVGATSGGTAFDIWGQGTMVTVSS VL: not shown | – | 39 | 0.0232 | 0.174 | – | 0.0182 | ≥ 35 | – | 4.15 | – | – | – | – | – |

Now from value to binder, other results behind:

| binding result [1] | Kd [2] [nM] | IC50, inhibition of rHMG1 stimulated IL-1β release from human PBMCs [3] [µg/mL] | IC50, inhibition of rHMG1 stimulated IL-6 release from human PBMCs [3] [nM] | IC50, inhibition of rHMG1 stimulated IL-12 release from human PBMCs [3] [µg/mL] | IC50, inhibition of rHMG1 stimulated TNF-α release from human PBMCs [3] [µg/mL] | percent inhibition of HMG1 binding to RAGE [4] [%] | binding result [5] | IC50, inhibition of HMG1 stimulated NO release from macrophages [3] [µg/mL] | binding result [6] | binding result [7] | binding result [9] | binding result [10] | Binder | binding result [8] |
| --- | --- | --- | --- | --- | --- | --- | --- | --- | --- | --- | --- | --- | --- | --- |
| binds | 23 | 6.05 | 0.56 | 1.24 | 1.44 | ≥ 35 | – | – | – | – | – | – | anti-HMG1 antibody S16 (antibody, V domains shown, also called ATCC PTA-6259) VH: EVQLLESGGGLVQPGGSLRLSCAASGFTFSWYSMLWVRQAPGKGLEWVSYISPSGGFTNYADSVKGRFTISRDNSKNTLYLQMNSLRAEDTAVYYCARWDYNSGWYYDHWGQGTLVTVSS VL: DIQMTQSPDTLSLSPGERATLSCRASQSVNSRNLAWYQQKPGQAPRLLIYGASTRATGIPDRFSGSVSGTEFTLTISSLQPDDFATYYCQQYNSYFTFGQGTKLEIK | – |
| binds | 30 | 5.01 | 0.9 | 0.715 | 5.51 | – | – | – | binds | binds | binds | binds | anti-HMG1 antibody G4 (antibody, V domains shown, also called ATCC PTA-6258) VH: EVQLLESGGGLVQPGGSLRLSCAASGFTFSWYDMTWVRQAPGKGLEWVSSISPSGGYTKYADSVKGRFTISRDNSKNTLYLQMNSLRAEDTAVYYCTTEFYDYLDVWGKGTTVTVSS VL: DIQMTQSPGTLSLSPGEGATLSCRASQSVSSTYLAWYQQKPGQAPRLLIYEASKRATGTPARFSGSGSGTDFTLSISSLEPEDFAVYYCQHRHNWPPQWTFGQGTKVEVK | binds |

From patent publication US20090169546A1 (published 2009)
